Results: article PMC7721913 (The Journal of Cell Biology, 2020)

Target: KLC1 TPR1-6 fragment (human KNS2 residues 205-501) (human, UniProt Q07866 205-501)
Experiment: ITC

Sequence of KLC1 TPR1-6 fragment (human KNS2 residues 205-501) (Q07866 205-501): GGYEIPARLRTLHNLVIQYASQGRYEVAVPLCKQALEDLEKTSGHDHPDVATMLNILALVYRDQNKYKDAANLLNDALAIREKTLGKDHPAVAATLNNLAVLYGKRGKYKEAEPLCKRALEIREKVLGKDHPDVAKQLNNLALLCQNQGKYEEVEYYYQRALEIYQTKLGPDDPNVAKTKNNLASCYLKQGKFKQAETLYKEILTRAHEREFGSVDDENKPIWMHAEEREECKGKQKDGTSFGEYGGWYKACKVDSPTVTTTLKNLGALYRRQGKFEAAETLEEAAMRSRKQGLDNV

Kd: 3.83 ± 2.31 µM | dH: -2.05 ± 0.438 kcal/mol | stoichiometry N: 0.964 ± 0.143
B1: WT SFPQ peptide spanning the Y-acidic motif (peptide)
peptide: ESEMEDAYHEHQANLLR
